PMC4591472 (Microbiology (Reading, England), 2015)

T1: FloT tagged to the T25 catalytic domain of adenylate cyclase (B. subtilis NCIB3610, UniProt O32076 1-509)
T1 sequence (looked up): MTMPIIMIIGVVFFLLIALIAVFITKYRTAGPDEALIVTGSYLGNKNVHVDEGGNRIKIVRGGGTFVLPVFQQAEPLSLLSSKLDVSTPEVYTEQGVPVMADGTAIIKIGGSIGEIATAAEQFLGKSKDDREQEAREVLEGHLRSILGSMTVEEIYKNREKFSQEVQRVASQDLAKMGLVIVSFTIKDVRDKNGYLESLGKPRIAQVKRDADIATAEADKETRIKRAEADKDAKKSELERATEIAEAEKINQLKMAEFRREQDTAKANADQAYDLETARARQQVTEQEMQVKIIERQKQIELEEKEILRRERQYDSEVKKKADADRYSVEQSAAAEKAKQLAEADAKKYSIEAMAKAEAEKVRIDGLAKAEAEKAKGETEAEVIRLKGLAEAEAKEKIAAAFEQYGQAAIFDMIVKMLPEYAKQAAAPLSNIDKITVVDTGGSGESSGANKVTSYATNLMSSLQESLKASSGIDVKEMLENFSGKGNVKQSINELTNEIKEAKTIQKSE

B1: KinB, bacterial two-hybrid fusion (enzyme, B. subtilis NCIB3610, UniProt Q08430 1-428, looked up)
chain: MEILKDYLLHICFILFPILLYQVFWLGKPAILVPKINSGLVTLFACGASVLCIIFPIHEMDYIQYGLQMIPVIICLFYISTASGLTVAASVLCFELLFYEPSAMFVFTLLPFLIIIPILFQKKWPFMSKAKKLLLSLLISCVEIFLFFASSWILSALNILNFQKSGIFVYEAAVSGLFRSSVLLLSIYIIESIAENIALRSQLIHSEKMTIVSELAASVAHEVRNPLTVVRGFVQLLFNDETLQNKSSADYKKLVLSELDRAQGIITNYLDMAKQQLYEKEVFDLSALIKETSSLMVSYANYKSVTVEAETEPDLLIYGDATKLKQAVINLMKNSIEAVPHGKGMIHISAKRNGHTIMINITDNGVGMTDHQMQKLGEPYYSLKTNGTGLGLTVTFSIIEHHHGTISFNSSFQKGTTVTIKLPADLPH
B2: ResE, bacterial two-hybrid fusion (enzyme, B. subtilis NCIB3610, UniProt P35164 1-589, looked up)
chain: MKFWKSVVGKLWFTILSLVLIVLFILTVLLLEFIENYHVEEAENDLTQLANKVAVILENHEDQALARSITWELADNLTSIAIIQDEKNHWYSPNDKNRLSSITVEQIQHDKDLNKALKDHKKVSKRTGLSDTDTDNERLIVGVPYEKDGKKGMVFLSQSLLAVKDTTKHTTRYIFLAAGIAIVLTTFFAFFLSSRVTYPLRKMREGAQDLAKGKFDTKIPILTQDEIGELATAFNQMGRQLNFHINALNQEKEQLSNILSSMADGVITINIDGTILVTNPPAERFLQAWYYEQNMNIKEGDNLPPEAKELFQNAVSTEKEQMIEMTLQGRSWVLLMSPLYAESHVRGAVAVLRDMTEERRLDKLREDFIANVSHELRTPISMLQGYSEAIVDDIASSEEDRKEIAQIIYDESLRMGRLVNDLLDLARMESGHTGLHYEKINVNEFLEKIIRKFSGVAKEKNIALDHDISLTEEEFMFDEDKMEQVFTNLIDNALRHTSAGGSVSISVHSVKDGLKIDIKDSGSGIPEEDLPFIFERFYKADKARTRGRAGTGLGLAIVKNIVEAHNGSITVHSRIDKGTTFSFYIPTKR
B3: KinC, bacterial two-hybrid fusion (enzyme, B. subtilis NCIB3610, UniProt P39764 1-428, looked up)
chain: MRKYQARIISIILAMIFIMFWDYLFYFIGKNPINWPVDIVYTAVTLVSVWMLAYYIDEKQQLVKKMKDNEWKYKQLSEEKNRIMDNLQEIVFQTNAKGEITYLNQAWASITGFSISECMGTMYNDYFIKEKHVADHINTQIQNKASSGMFTAKYVTKNGTIFWGEVHYKLYYDRDDQFTGSLGTMSDITERKEAEDELIEINERLARESQKLSITSELAAGIAHEVRNPLTSVSGFLQIMKTQYPDRKDYFDIIFSEIKRIDLVLSELLLLAKPQAITFKTHQLNEILKQVTTLLDTNAILSNIVIEKNFKETDGCMINGDENQLKQVFINIIKNGIEAMPKGGVVTISTAKTASHAVISVKDEGNGMPQEKLKQIGKPFYSTKEKGTGLGLPICLRILKEHDGELKIESEAGKGSVFQVVLPLKSDS
B4: KinC-CFP (enzyme, B. subtilis, UniProt P39764 1-428, looked up)
chain: B3 chain
B5: KinD, bacterial two-hybrid fusion (enzyme, B. subtilis NCIB3610, UniProt O31671 1-506, looked up)
chain: MLERCKLKILKGACGRVKLYIILVVIPAIVISFFVYEKEKDTIAAEHKQEASVLLNLHRNKINYLIGETMARMTSLSIAIDRPVDIKKMQSILEKTFDSEPRFSGLYFLNAKGDVTASTTELKTKVNLADRSFFIKAKETKKTVISDSYSSRITGQPIFTICVPVLDSKRNVTDYLVAAIQIDYLKNLINLLSPDVYIEVVNQDGKMIFASGQASHAEDQKPVSGYLDDISWNMKVYPNPVTIEELSKSLVLPLSCIIVLLNILFILVLYYLLKRQTQLERSENEAQKLELIGTLAASTAHEIRNPLTGISGFIQLLQKKYKGEEDQLYFSIIEQEIKRINQIVSEFLVLGKPTAEKWELNSLQDIIGEIMPIIYSEGNLYNVEVELQYLTEQPLLVKCTKDHIKQVILNVAKNGLESMPEGGKLTISLGALDKKAIIKVVDNGEGISQEMLDHIFLPFVTSKEKGTGLGLVVCKRIVLMYGGSIHIESEVRRGTEVTITLPVSAS

Experiments:
two-hybrid = target: the molecule itself; test: two-hybrid
[1] = target: T1, FloT tagged to the T25 catalytic domain …; test: two-hybrid
native gel or EMSA = target: the molecule itself; test: native gel or EMSA

Binder	β-galactosidase activity (two-hybrid)	β-galactosidase activity [1]	stoichiometry N (native gel or EMSA)
B1	~5500 Miller Units		
B2		~1600 Miller Units	
B3	~1500 Miller Units	> 3500 Miller Units	
B4			2
B5	~1500 Miller Units	~1100 Miller Units	
